# Experimental data reported in patent US12502562B2, “Human iPSC-derived brain organoids and uses thereof” (CITY OF HOPE, priority 2020, dated 2025).
# B1: 1B2: Mouse monoclonal anti-CMV PC neutralizing antibody that targets the UL128/130/131A subunits of the PC (antibody, V domains shown)
# VH: EVQLVESGGVLVKPGGSLKLSCAASGFTFSDYYMYWVRQTPEKRLEWVATISDDGNYTNYPDSVKGRFTISRDNAKNNLYLQMSSLKSEDTAMYYCARGWLLPVFAYWGQGTLVTVSA
# VL: DIVLTQSPATLSVTPGDSVSLSCRASQSIGNNLHWYQQKSHESPRLLIKYTSQSISGIPSRFSGSGSGTDFTLNINSVETEDFGVYFCQQSNRWPWTFGGGTKLEIK
# B2: 62-11: Mouse monoclonal gH-specific HCMV neutralizing antibody raised against the envelope PC by vaccination (antibody, V domains shown)
# VH: QVQLQQPGAELVRPGASVKLSCKASGYTFTSYWMNWVKQRPGQGLEWIGMIDPSDSETHYNQMFKDKATLTVDKSSSTAYMQLSSLTSEDSAVYYCSNGYSSFAYWGQGTLVTVSV
# VL: DVQMTQTTSSLSASLGDRVTISCSASQGISNYLNWYQQKPDGTVKLLIYDTSSLHSGVPSRFSGSGSGTDYSLTISNLEPEDIATYYCQQYSKLPYTFGGGTKLEIK
# How the values were obtained:
# HCMV TB40/E [1] = assay: Receptor-specific siRNA treatment of brain organoids followed by TB40/E infection; assay type: cell-based, Human cytomegalovirus; settings: for GFP fluorescence of siRNA-treated infected brain organoids / growth kinetics of siRNA-treated infected brain organoids: siRNA for 4 days, then GFP-labeled TB40/E, up to 20 days post infection, compared to control siRNA; for susceptibility of brain organoids to TB40/E: siRNA-mediated knockdown, summary statement
# Protocol: (§1) HCMV infection of brain organoids. Brain organoids at day 45 of differentiation were seeded in 24-well plates and exposed to 5×10^5 pfu/ml of HCMV virus for 24 hours. Following infection, 1 ml medium was replaced, and each organoid was placed in a single well for the duration of the experiment. At different time points post infection, each organoid was evaluated for GFP fluorescence intensity and organoid size in diameter using the same microscopy setting during each experiment.
# RNA interference. Oligonucleotides for siRNA-mediated RNA interference were synthesized by […]. For RNA interference in brain organoids, four brain organoids with similar size were seeded in ultralow 24-well plates (one organoid per well) and transfected with siRNA using siLentFect. After 96 hours incubation, each organoid was infected with TB40/E at 5×10^5 pfu/ml. Medium was changed the following day. Brain organoids were cultured for 20 days on shaker with continuous medium change every 3-4 days.
# [2] = system: hiPSC-derived brain organoids; assay: MEA recording of hiPSC-derived brain organoids with neuronal blockers; assay type: cell-based, human; settings: uninfected brain organoids, blocker 10 μM applied immediately before recording
# Protocol: (§2) Microelectrode Arrays (MEA). Brain organoids at day 45 of differentiation were partially dissociated and seeded onto 12-well transparent MEA plates at three brain organoids per well. Brain organoids were cultured in BrainPhys medium, including 1×B27, 1×N2, 20 ng/ml GDNF, 20 ng/ml BDNF, 500 μg/ml Dibutyryl-cAMP, 1× Glutamax, and 1× NEAA. MEA recordings were performed at 37° C. in a Maestro MEA system with AxIS software using a bandwidth with a filter for 10 Hz to 2.5 kHz cutoff frequencies. Spike detection was performed using an adaptive threshold set to 5.5 times of the standard deviation of the estimated noise on each electrode. For recordings, following a 5-minute resting time in the Maestro instrument, each plate was recorded for 10 minutes to calculate the spike rate per well. When a recording of 5 spikes over the length of 1 minute (5 spikes per minute) was obtained, the electrode was considered active. Individual electrode bursts were identified using an adaptive Poisson surprise algorithm, while network bursts were identified for each well using a non-adaptive algorithm requiring a minimum of 10 spikes with a maximum inter-spike interval of 100 ms. Multielectrode data analysis was performed using the Axion Biosystems NeuralMetrics Tool. Synchrony index was calculated by NeuralMetric Tool with synchrony window set as 20 ms. […]
# HCMV TB40/E [3] = assay: HCMV TB40/E infection of hiPSC-derived brain organoids in the presence of NAbs (GFP fluorescence intensity, organoid size); assay type: cell-based, Human cytomegalovirus; settings: for GFP fluorescence intensity of infected brain organoids / brain organoid growth kinetics (relative organoid size): GFP-labeled TB40/E, organoids at day 45 of differentiation, NAb 3.2-2000 ng/ml, up to 30 days post infection; for GFP fluorescence intensity of infected brain organoids / brain organoid growth kinetics (relative organoid size) / brain organoid size: compared to IgG control; for brain organoid size: TB40/E, 80-2000 ng/ml antibody; for prevention of HCMV infection of human brain organoids: summary statement
# Protocol: as §1
# (§3) Brain organoid treatment with NAbs. 1B2 and 62-11 NAbs at final concentrations ranging from 3.2 ng/ml to 4000 ng/ml were incubated with 5×10^5 pfu/ml of HCMV for 1 hour at 37° C. and then transferred to brain organoid-containing wells. Normal mouse IgG was used as a control at the concentration of 2000 ng/ml. For proliferation assay, brain organoids were incubated with 10 μM BrdU for 2 hours and fixed in 4% paraformaldehyde (PFA) for 1 hour, followed by immunostaining.
# (§4) Images were obtained with a Carl Zeiss LSM700 confocal microscope or Nikon Eclipse TE-2000-S microscope. Cortical layer thicknesses, brain organoid size and GFP fluorescence intensity of brain organoids were measured by Image J. For measuring the layer thickness, small rectangles were drawn to ensure two opposite sides to align with both layer marker dashed lines.
# HCMV strain TR = assay: HCMV TR infection of hiPSC-derived brain organoids in the presence of NAb; assay type: cell-based, Human cytomegalovirus; settings: GFP-labeled TR, IMR90 iPSC-derived organoids at day 45 of differentiation
# Protocol: as §1, §3, §4
# HCMV TB40/E [4] = assay: Cortical layer structure of TB40/E-infected brain organoids by layer marker immunostaining; assay type: cell-based, Human cytomegalovirus; settings: NAb 2000 ng/ml, compared to IgG control
# Protocol: as §3
# Immunostaining. Cells on coverslip were fixed with 4% PFA in PBS for 15 minutes at room temperature. Brain organoids were fixed with 4% PFA for 1 hour and submerged in 30% sucrose overnight. The samples were embedded in OCT and sectioned at a thickness of 14 or 20 μm using Leica CM3050S. Cells or brain organoid sections were permeabilized and blocked with blocking solution (1×PBS containing 0.1% Triton X-100 and 5% normal donkey serum) for 1 hour. […]
# as §4
# HCMV TB40/E [5] = assay: MEA recording of neural network activity in TB40/E-infected brain organoids; assay type: cell-based, Human cytomegalovirus; settings: 4000 ng/ml NAb, MEA recording 2 weeks post infection
# Protocol: as §2
# [6] = system: HCMV infection of fibroblasts; settings: cited from earlier work
# [7] = system: HCMV infection of epithelial cells; settings: cited from earlier work
molecule,measurement,setting,value
"ITGA5-specific siRNA: siRNA specific for integrin α5 (Dharmacon), sense SEQ ID NO: 7, antisense SEQ ID NO: 8 (sense GGGAACCUCACUUACGGCU; antisense AGCCGUAAGUGAGGUUCCCUU; listed as RNA, chemistry not given here) [reference compound]",GFP fluorescence of siRNA-treated infected brain organoids,HCMV TB40/E [1],similar
same,growth kinetics of siRNA-treated infected brain organoids,HCMV TB40/E [1],similar
"ITGA3-specific siRNA: siRNA specific for integrin α3, sense SEQ ID NO: 5, antisense SEQ ID NO: 6 (sense GCUACAUGAUUCAGCGCAA; antisense UUGCGCUGAAUCAUGUAGCUG; listed as RNA, chemistry not given here)",GFP fluorescence of siRNA-treated infected brain organoids,HCMV TB40/E [1],similar
same,growth kinetics of siRNA-treated infected brain organoids,HCMV TB40/E [1],similar
"PDGFRα-specific siRNA: siRNA specific for PDGFRα, sense SEQ ID NO: 3, antisense SEQ ID NO: 4 (sense CCACCUUCAUCAAGAGAGA; antisense UCUCUCUUGAUGAAGGUGGAA; listed as RNA, chemistry not given here)",GFP fluorescence of siRNA-treated infected brain organoids,HCMV TB40/E [1],no or very low GFP fluorescence
same,growth kinetics of siRNA-treated infected brain organoids,HCMV TB40/E [1],substantially higher growth kinetics
same,susceptibility of brain organoids to TB40/E,HCMV TB40/E [1],completely abrogated
"EGFR-specific siRNA: siRNA specific for EGFR, sense SEQ ID NO: 1, antisense SEQ ID NO: 2 (sense GACGGCGUCCGCAAGUGUA; antisense UACACUUGCGGACGCCGUCUU; listed as RNA, chemistry not given here)",GFP fluorescence of siRNA-treated infected brain organoids,HCMV TB40/E [1],no or very low GFP fluorescence
same,growth kinetics of siRNA-treated infected brain organoids,HCMV TB40/E [1],substantially higher growth kinetics
same,susceptibility of brain organoids to TB40/E,HCMV TB40/E [1],completely abrogated
"N#Cc1cc2nc([O-])c([O-])nc2cc1[N+](=O)[O-].[Na+].[Na+] [CNQX, CNQX disodium salt]","spontaneous, synchronized burst and spikes of the neuronal network (MEA)",[2],could be quenched
B1,GFP fluorescence intensity of infected brain organoids,HCMV TB40/E [3],substantially reduced GFP fluorescence intensity
same,brain organoid growth kinetics (relative organoid size),HCMV TB40/E [3],markedly increased growth kinetics in a dose-dependent manner
same,brain organoid size,HCMV TB40/E [3],substantially larger
same,prevention of HCMV infection of human brain organoids,HCMV TB40/E [3],can potently prevent
same,infection of brain organoids by TR and its effect on brain organoid growth,HCMV strain TR,could be prevented
same,thickness of the TBR2+SVZ and the CTIP2+CP layers,HCMV TB40/E [4],much thicker
same,neural network activity (MEA profile),HCMV TB40/E [5],largely prevented neural network impairment
same,prevention of HCMV infection of fibroblasts,[6],unable to prevent
same,inhibition of HCMV infection of epithelial cells,[7],exceptionally high potency
B2,GFP fluorescence intensity of infected brain organoids,HCMV TB40/E [3],substantially reduced GFP fluorescence intensity
same,brain organoid growth kinetics (relative organoid size),HCMV TB40/E [3],markedly increased growth kinetics in a dose-dependent manner
same,brain organoid size,HCMV TB40/E [3],substantially larger
same,prevention of HCMV infection of human brain organoids,HCMV TB40/E [3],can potently prevent
same,prevention of HCMV infection of fibroblasts,[6],can potently interfere
same,inhibition of HCMV infection of epithelial cells,[7],can potently interfere
